Columns and labels:
5HT3a = target: T1, 5HT3a (Homo sapiens, UniProt P46098); test: Ion channel panel (IonWorks Barracuda): 5HT3a; format: cell-based
T1 construct: host or cells: HEK293 or CHO
T1 sequence (P46098 whole entry, looked up): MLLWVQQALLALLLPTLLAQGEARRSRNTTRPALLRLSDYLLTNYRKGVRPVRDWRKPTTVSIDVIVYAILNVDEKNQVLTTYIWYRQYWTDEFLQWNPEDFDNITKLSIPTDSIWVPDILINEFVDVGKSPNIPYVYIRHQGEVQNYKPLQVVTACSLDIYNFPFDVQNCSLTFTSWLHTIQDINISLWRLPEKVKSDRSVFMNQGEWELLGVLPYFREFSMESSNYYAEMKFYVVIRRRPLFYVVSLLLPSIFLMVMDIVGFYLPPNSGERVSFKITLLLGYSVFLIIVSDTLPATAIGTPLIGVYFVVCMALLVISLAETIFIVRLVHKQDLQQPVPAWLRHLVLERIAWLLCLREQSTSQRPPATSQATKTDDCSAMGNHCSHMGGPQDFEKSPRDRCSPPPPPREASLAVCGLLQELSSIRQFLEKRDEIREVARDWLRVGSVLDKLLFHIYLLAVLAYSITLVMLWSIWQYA
Summary of the method: (§1)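 Peptides were tested in duplicate at final 20 μM and 200 nM, with concentration set by amino acid analysis, in HEPES-buffered saline. They were applied for at least 5 min to HEK293 or CHO cells transfected with each channel. Currents were expressed as % inhibition, 1-(Ipeptide/Icontrol)×100, or % activation, Ipeptide/Icontrol×100, against a channel-matched reference compound.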

α3β4 = target: T2, α3β4 (Homo sapiens, UniProt P30926+P32297); test: Ion channel panel (IonWorks Barracuda): α3β4; format: cell-based; conditions: 100% = no change, <100% = inhibition
T2 construct: host or cells: HEK293 or CHO
Summary of the method: as §1

α4β2 = target: T3, α4β2 (Homo sapiens, UniProt P17787+P43681); test: Ion channel panel (IonWorks Barracuda): α4β2; format: cell-based; conditions: 100% = no change, <100% = inhibition
T3 construct: host or cells: HEK293 or CHO
Summary of the method: as §1

Cav2.1 = target: T4, Cav2.1 (Homo sapiens, UniProt O00555); test: cell-based; conditions: 100% = no change, <100% = inhibition
T4 construct: host or cells: HEK293 or CHO
Summary of the method: as §1

Cav2.2 = target: T5, Cav2.2 (Homo sapiens, UniProt Q00975); test: cell-based; conditions: 100% = no change, <100% = inhibition
T5 construct: host or cells: HEK293 or CHO
Summary of the method: as §1

Kv2.1 = target: T6, Kv2.1 (Homo sapiens, UniProt Q14721); test: cell-based; conditions: 100% = no change, <100% = inhibition
T6 construct: host or cells: HEK293 or CHO
Summary of the method: as §1

GABA = test: Ion channel panel (IonWorks Barracuda): GABA; format: cell-based; conditions: 100% = no change, <100% = inhibition
Summary of the method: as §1

Nav1.5 = Nav1.5 (Homo sapiens, UniProt Q14524); test: in vitro; conditions: 100% = no change; for Activity of Nav1.5 with peptide, expressed as a percentage of the reference compound: peptide at 0.2 μM; for Activity of Nav1.5 with peptide (percentage of the reference compound): peptide at 20 μM
Sequence of Nav1.5 (Q14524 whole entry): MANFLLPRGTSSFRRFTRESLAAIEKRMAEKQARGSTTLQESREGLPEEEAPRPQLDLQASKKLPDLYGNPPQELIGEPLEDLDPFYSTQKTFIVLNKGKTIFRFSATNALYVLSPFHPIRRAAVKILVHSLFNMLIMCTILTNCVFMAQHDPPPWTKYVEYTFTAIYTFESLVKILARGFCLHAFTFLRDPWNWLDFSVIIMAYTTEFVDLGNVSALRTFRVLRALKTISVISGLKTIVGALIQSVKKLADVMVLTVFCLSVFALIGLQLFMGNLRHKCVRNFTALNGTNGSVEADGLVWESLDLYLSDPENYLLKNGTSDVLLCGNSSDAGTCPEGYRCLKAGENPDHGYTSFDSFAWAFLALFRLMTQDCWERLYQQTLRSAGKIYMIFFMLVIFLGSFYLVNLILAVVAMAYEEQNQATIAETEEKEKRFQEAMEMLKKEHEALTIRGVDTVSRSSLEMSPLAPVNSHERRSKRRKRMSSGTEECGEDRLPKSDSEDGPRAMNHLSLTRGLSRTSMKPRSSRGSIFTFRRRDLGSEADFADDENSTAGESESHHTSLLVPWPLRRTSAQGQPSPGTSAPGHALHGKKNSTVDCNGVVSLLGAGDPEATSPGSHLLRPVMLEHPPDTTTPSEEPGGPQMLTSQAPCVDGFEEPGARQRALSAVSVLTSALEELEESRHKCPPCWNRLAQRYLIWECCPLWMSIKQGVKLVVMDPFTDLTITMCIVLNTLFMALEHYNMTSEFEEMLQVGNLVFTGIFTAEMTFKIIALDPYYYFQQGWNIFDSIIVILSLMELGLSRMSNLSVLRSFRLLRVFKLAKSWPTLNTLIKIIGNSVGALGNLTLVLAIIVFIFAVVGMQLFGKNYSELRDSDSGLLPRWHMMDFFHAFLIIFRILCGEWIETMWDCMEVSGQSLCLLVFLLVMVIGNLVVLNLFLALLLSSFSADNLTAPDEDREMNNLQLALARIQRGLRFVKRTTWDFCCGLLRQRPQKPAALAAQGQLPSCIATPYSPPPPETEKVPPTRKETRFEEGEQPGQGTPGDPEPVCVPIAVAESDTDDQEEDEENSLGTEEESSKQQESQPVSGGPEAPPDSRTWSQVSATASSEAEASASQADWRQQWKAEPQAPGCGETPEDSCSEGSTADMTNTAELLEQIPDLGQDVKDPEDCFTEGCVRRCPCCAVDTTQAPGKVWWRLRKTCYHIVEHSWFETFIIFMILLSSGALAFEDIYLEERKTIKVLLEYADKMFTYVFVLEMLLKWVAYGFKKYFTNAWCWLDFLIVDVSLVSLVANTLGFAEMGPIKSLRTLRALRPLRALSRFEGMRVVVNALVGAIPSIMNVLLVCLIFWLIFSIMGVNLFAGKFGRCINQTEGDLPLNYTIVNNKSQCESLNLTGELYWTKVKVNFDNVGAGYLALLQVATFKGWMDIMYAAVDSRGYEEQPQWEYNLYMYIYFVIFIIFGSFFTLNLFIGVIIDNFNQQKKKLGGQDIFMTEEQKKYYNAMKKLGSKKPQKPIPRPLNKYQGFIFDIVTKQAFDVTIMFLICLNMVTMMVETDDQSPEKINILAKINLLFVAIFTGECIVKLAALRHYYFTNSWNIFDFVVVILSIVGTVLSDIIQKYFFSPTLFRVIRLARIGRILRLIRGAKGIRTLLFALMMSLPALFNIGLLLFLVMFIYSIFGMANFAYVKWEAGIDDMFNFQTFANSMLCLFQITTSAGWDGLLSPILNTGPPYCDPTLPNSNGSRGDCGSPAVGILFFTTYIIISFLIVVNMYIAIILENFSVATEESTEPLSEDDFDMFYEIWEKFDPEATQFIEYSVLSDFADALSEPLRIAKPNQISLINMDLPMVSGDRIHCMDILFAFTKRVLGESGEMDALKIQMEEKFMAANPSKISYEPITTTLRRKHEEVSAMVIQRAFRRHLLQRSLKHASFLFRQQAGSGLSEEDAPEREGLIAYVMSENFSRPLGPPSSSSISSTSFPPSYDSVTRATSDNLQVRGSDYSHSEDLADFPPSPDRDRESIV
Summary of the method: as §1

hERG = hERG (Homo sapiens, UniProt Q12809); test: in vitro; conditions: 100% = no change, <100% = inhibition
Summary of the method: as §1

Kir2.1 = target: T7, Kir2.1 (Homo sapiens, UniProt P63252); test: Ion channel panel (IonWorks Barracuda): Kir2.1; format: cell-based; conditions: 100% = no change, <100% = inhibition
T7 construct: host or cells: HEK293 or CHO
Summary of the method: as §1

Kv1.1 = target: T8, Kv1.1 (Homo sapiens, UniProt Q09470); test: cell-based; format: cell-based; conditions: 100% = no change, <100% = inhibition
T8 construct: host or cells: HEK293 or CHO
Summary of the method: as §1

Kv1.2 = target: T9, Kv1.2 (Homo sapiens, UniProt P16389); test: cell-based; format: cell-based; conditions: 100% = no change, <100% = inhibition
T9 construct: host or cells: HEK293 or CHO
Summary of the method: as §1

Kv1.3 = target: T10, Kv1.3 (Homo sapiens, UniProt P22001); test: cell-based; format: cell-based; conditions: 100% = no change, <100% = inhibition
T10 construct: host or cells: HEK293 or CHO
Summary of the method: as §1

Nav1.7 = target: T11, Nav1.7 (Homo sapiens, UniProt Q15858); test: cell-based; format: cell-based; conditions: 100% = no change; for Activity of Nav1.7 with peptide, expressed as a percentage of the reference compound: peptide at 0.2 μM; for Activity of Nav1.7 with peptide (percentage of the reference compound): peptide at 20 μM
T11 construct: host or cells: HEK293 or CHO
T11 sequence (Q15858 whole entry): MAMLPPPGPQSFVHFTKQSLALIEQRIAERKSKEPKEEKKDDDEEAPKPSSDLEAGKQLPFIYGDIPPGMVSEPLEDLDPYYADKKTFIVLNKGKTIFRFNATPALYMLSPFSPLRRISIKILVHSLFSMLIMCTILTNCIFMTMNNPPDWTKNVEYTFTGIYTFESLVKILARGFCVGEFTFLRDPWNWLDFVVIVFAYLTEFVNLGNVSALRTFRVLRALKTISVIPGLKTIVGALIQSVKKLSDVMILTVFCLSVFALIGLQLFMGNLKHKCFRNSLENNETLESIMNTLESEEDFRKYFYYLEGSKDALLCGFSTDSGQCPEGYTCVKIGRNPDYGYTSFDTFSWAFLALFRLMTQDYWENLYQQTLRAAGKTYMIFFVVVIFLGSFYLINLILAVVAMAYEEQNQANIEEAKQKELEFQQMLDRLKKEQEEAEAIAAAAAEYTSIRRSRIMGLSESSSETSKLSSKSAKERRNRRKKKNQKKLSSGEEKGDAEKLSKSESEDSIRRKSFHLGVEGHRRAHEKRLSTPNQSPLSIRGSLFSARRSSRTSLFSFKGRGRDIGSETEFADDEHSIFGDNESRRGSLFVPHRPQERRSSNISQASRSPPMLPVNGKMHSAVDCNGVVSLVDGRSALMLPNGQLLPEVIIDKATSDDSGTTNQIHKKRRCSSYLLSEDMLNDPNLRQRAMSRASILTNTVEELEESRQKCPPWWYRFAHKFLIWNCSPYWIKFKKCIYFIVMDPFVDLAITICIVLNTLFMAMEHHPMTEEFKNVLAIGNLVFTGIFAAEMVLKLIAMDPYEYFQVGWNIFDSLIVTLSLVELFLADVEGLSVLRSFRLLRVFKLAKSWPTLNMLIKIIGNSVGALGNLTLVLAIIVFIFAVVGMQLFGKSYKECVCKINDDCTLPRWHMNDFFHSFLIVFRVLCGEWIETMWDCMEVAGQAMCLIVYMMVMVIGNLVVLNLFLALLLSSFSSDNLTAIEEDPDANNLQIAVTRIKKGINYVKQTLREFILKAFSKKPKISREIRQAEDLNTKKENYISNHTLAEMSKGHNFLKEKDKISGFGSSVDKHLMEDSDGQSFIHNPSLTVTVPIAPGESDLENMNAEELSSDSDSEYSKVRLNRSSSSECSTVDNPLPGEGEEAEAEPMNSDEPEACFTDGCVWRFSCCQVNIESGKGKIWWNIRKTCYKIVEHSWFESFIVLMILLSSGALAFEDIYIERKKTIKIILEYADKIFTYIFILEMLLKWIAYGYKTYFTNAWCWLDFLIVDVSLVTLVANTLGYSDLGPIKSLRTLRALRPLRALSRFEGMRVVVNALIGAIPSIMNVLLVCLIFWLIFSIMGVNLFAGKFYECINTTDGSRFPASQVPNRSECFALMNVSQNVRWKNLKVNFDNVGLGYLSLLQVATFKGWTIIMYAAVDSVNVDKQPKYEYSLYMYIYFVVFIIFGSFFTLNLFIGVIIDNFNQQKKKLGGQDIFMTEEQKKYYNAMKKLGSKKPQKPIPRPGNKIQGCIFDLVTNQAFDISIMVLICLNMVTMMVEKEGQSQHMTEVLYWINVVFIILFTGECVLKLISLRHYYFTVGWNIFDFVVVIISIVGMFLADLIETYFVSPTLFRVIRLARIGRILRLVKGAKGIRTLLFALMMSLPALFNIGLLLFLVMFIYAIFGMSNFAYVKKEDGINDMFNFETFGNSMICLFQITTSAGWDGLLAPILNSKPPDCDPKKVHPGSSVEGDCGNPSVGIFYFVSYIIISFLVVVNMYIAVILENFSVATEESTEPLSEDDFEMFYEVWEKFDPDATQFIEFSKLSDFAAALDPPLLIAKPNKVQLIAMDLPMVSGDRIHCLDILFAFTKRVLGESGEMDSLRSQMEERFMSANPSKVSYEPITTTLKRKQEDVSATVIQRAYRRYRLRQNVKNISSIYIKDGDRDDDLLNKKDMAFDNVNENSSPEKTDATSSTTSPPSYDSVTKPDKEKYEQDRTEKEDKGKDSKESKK

NR2A = target: T12, NR2A (Homo sapiens, UniProt Q12879); test: Ion channel panel (IonWorks Barracuda): NR2A; format: cell-based; conditions: 100% = no change, <100% = inhibition
T12 construct: host or cells: HEK293 or CHO
Summary of the method: as §1

NR2B = target: T13, NR2B (Homo sapiens, UniProt Q13224); test: Ion channel panel (IonWorks Barracuda): NR2B; format: cell-based; conditions: 100% = no change, <100% = inhibition
T13 construct: host or cells: HEK293 or CHO
Summary of the method: as §1

TRPA1 = target: T14, TRPA1 (Homo sapiens, UniProt O75762); test: Ion channel panel (IonWorks Barracuda): TRPA1; format: cell-based; conditions: 100% = no change, <100% = inhibition
T14 construct: host or cells: HEK293 or CHO
T14 sequence (O75762 whole entry): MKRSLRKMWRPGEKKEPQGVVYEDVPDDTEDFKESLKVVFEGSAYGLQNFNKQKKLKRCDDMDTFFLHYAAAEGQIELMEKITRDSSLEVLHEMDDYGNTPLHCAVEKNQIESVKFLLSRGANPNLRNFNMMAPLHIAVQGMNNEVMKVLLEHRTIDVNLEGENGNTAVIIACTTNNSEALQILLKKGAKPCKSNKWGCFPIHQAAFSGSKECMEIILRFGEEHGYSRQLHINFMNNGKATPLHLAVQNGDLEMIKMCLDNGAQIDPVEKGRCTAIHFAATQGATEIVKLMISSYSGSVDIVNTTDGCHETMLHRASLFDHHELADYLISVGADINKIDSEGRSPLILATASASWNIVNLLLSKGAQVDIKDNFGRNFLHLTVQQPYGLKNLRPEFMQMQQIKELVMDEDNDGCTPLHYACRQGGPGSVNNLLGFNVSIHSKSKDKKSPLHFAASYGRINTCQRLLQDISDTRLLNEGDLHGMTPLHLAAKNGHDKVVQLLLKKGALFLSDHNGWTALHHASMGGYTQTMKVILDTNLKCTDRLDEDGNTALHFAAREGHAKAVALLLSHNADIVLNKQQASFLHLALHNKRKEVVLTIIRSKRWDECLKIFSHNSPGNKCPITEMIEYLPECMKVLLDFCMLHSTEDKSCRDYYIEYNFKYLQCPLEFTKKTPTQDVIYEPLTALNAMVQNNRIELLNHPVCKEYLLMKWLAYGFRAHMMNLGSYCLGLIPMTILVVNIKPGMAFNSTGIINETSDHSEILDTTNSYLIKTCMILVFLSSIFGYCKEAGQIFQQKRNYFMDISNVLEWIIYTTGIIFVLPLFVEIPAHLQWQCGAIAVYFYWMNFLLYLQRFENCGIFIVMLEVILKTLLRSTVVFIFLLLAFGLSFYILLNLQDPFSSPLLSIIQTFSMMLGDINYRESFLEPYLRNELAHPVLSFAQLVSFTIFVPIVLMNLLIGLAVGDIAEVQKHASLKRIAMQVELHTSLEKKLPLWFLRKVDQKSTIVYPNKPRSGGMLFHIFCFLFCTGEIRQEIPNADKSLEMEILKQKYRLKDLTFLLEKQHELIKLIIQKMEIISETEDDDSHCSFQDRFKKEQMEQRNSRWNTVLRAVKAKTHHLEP
Summary of the method: as §1

TRPV1 = target: T15, TRPV1 (Homo sapiens, UniProt Q8NER1); test: Ion channel panel (IonWorks Barracuda): TRPV1; format: cell-based; conditions: 100% = no change, <100% = inhibition
T15 construct: host or cells: HEK293 or CHO
Summary of the method: as §1

[1] = first of two Nav1.5 columns (probably TP1)
[2] = second of two Nav1.5 columns (probably TP2)
[3] = first of two Nav1.7 columns (probably TP1)
[4] = second of two Nav1.7 columns (probably TP2)

## 38 (GSGIGDPVTCLKSGAICHPVFCPRRYKQIGTCGLPGTKCCKKP) [compound 38]
5HT3a
  Activity of 5HT3a with peptide (percentage of the reference compound): 98%
  Activity of 5HT3a with peptide, expressed as a percentage of the reference compound: 97%
α3β4; peptide at 0.2 μM
  Activity of a3b4 with peptide, expressed as a percentage of the reference compound: 99%
α3β4; peptide at 20 μM
  Activity of a3b4 with peptide (percentage of the reference compound): 92%
α4β2; peptide at 0.2 μM
  Activity of a4b2 with peptide, expressed as a percentage of the reference compound: 107%
α4β2; peptide at 20 μM
  Activity of a4b2 with peptide (percentage of the reference compound): 88%
Cav2.1; peptide at 0.2 μM
  Activity of Cav2.1 with peptide, expressed as a percentage of the reference compound: 95%
Cav2.1; peptide at 20 μM
  Activity of Cav2.1 with peptide (percentage of the reference compound): 93%
Cav2.2; peptide at 0.2 μM
  Activity of Cav2.2 with peptide, expressed as a percentage of the reference compound: 117%
Cav2.2; peptide at 20 μM
  Activity of Cav2.2 with peptide (percentage of the reference compound): 89%
Kv2.1; peptide at 0.2 μM
  Activity of Kv2.1 with peptide, expressed as a percentage of the reference compound: 100%
Kv2.1; peptide at 20 μM
  Activity of Kv2.1 with peptide (percentage of the reference compound): 125%
GABA; peptide at 0.2 μM
  Activity of GABA with peptide, expressed as a percentage of the reference compound: 121%
GABA; peptide at 20 μM
  Activity of GABA with peptide (percentage of the reference compound): 112%
Nav1.5; [1]
  Activity of Nav1.5 with peptide, expressed as a percentage of the reference compound: 124%
  Activity of Nav1.5 with peptide (percentage of the reference compound): 107%
Nav1.5; [2]
  Activity of Nav1.5 with peptide, expressed as a percentage of the reference compound: 124%
  Activity of Nav1.5 with peptide (percentage of the reference compound): 112%
hERG; peptide at 0.2 μM
  Activity of hERG with peptide, expressed as a percentage of the reference compound: 86%
hERG; peptide at 20 μM
  Activity of hERG with peptide (percentage of the reference compound): 71%
Kir2.1; peptide at 0.2 μM
  Activity of Kir2.1 with peptide, expressed as a percentage of the reference compound: 88%
Kir2.1; peptide at 20 μM
  Activity of Kir2.1 with peptide (percentage of the reference compound): 126%
Kv1.1; peptide at 0.2 μM
  Activity of Kv1.1 with peptide, expressed as a percentage of the reference compound: 97%
Kv1.1; peptide at 20 μM
  Activity of Kv1.1 with peptide (percentage of the reference compound): 73%
Kv1.2; peptide at 0.2 μM
  Activity of Kv1.2 with peptide, expressed as a percentage of the reference compound: 100%
Kv1.2; peptide at 20 μM
  Activity of Kv1.2 with peptide (percentage of the reference compound): 84%
Kv1.3; peptide at 0.2 μM
  Activity of Kv1.3 with peptide, expressed as a percentage of the reference compound: 101%
Kv1.3; peptide at 20 μM
  Activity of Kv1.3 with peptide (percentage of the reference compound): 31%
Nav1.7; [3]
  Activity of Nav1.7 with peptide, expressed as a percentage of the reference compound: 83%
  Activity of Nav1.7 with peptide (percentage of the reference compound): 86%
Nav1.7; [4]
  Activity of Nav1.7 with peptide, expressed as a percentage of the reference compound: 143%
  Activity of Nav1.7 with peptide (percentage of the reference compound): 86%
NR2A; peptide at 0.2 μM
  Activity of NR2A with peptide, expressed as a percentage of the reference compound: 100%
NR2A; peptide at 20 μM
  Activity of NR2A with peptide (percentage of the reference compound): 90%
NR2B; peptide at 0.2 μM
  Activity of NR2B with peptide, expressed as a percentage of the reference compound: 83%
NR2B; peptide at 20 μM
  Activity of NR2B with peptide (percentage of the reference compound): 88%
TRPA1; peptide at 0.2 μM
  Activity of TRPA1 with peptide, expressed as a percentage of the reference compound: 138%
TRPA1; peptide at 20 μM
  Activity of TRPA1 with peptide (percentage of the reference compound): 108%
TRPV1; peptide at 0.2 μM
  Activity of TRPV1 with peptide, expressed as a percentage of the reference compound: 98%
TRPV1; peptide at 20 μM
  Activity of TRPV1 with peptide (percentage of the reference compound): 76%
